How the values were obtained:
hCD137-mFc-Avi = molecular target: T1, hCD137-mFc-Avi (human; mouse, UniProt Q07011 24-186, biotin on the Avi sequence where the biotinylated form was used); assay: SPR, mAb^2 captured by anti-human Fab, antigen in flow
T1 construct: also called human CD137-mFc-Avi; dimeric human CD137; not shown: mouse IgG2a Fc domain (mIgG2a Fc)
Procedure: (§1) The binding of the anti-human CD137/PD-L1 mAb² to recombinant dimeric human and cynomolgus CD137 antigens was also measured by SPR using a Biacore T200 processing unit (GE Healthcare).
(§2) Briefly, 20 μg/ml anti-human Fab antibody (GE Healthcare, Human Fab Capture kit 28958325) was coated on flow cells 1, 2, 3 and 4 of a Biacore sensor S chip CM5 (GE Healthcare, BR100530) achieving a final response of approximately 5000 RU. […] The recombinant dimeric antigens, human CD137-mFc-Avi or cynomolgus CD137-mFc-Avi (see Example 1.1 for antigen details) diluted in HBS-EP buffer, were injected on flow cell 1, 2, 3 or 4 as appropriate at a concentration range of 81 nM to 0.037 nM with 3-fold dilutions for 4 minutes at 70 μl/min and then allowed to dissociate in buffer for 10 minutes. Regeneration was achieved by injecting 10 mM glycine pH 2.1 (GE Healthcare, Human Fab Capture kit 28958325) for 60 seconds at a rate of 30 μl/min. Data analysis was performed as described in Example 9.1.

cCD137-mFc-Avi = molecular target: T2, cCD137-mFc-Avi (cynomolgus; mouse); assay: as above
T2 construct: also called cynomolgus CD137-mFc-Avi; Cyno CD137-mFc-Avi; not shown: mouse IgG2a Fc domain (mIgG2a Fc)
T2 chain: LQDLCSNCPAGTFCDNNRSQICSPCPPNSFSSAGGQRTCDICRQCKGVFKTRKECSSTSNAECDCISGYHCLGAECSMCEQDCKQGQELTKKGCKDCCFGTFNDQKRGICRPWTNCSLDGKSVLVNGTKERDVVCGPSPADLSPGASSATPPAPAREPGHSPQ
Procedure: as §1, §2

[1] = molecular target: T3, cynomolgus CD137, cell-surface (cynomolgus, UniProt Q07011 24-255 (human entry)); assay: flow cytometry on DO11.10.cCD137
T3 construct: also called DO11.10.cCD137; CD137 on cynomolgus T cells
T3 chain: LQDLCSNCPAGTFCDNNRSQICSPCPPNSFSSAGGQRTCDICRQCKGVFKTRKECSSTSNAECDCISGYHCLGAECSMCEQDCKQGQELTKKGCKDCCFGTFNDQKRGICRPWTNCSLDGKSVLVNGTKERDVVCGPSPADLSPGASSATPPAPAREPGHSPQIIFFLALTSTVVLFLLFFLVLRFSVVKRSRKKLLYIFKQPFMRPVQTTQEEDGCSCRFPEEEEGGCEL
Procedure: (§3) Non-specific binding was also assessed by testing binding to DO11.10 cells lacking CD137 expression.
(§4) Briefly, DO11.10, DO11.10.hCD137 or DO11.10.cCD137 suspensions were prepared in FACS buffer (DPBS containing (Gibco, 14190-094) containing 0.5% BSA (Sigma, A7906)) and seeded at 1×10⁵ cell/well in 100 μl in round bottomed 96-well plates (VWR, 734-1797). […] The washed cells were resuspended in the diluted antibody mixture, incubated at 4° C. for 30 minutes, and then washed once in FACS buffer. […] Dead cells were excluded and the fluorescence in the APC channel (638 nm 660/20) was measured. The geometric mean fluorescence intensity (GMFI) values were plotted vs the log concentration of antibody and the resulting curves were fitted using the log (agonist) vs response equation in GraphPad Prism.

[2] = molecular target: Human FcRn (Acro Biosystems, FCM-H5286) (human, UniProt P55899 24-297; P61769 21-119); assay: SPR, mAb^2 immobilised, FcRn in flow, pH 6.0, steady state affinity; pH 6.0
Excerpt: (§5) The neonatal Fc receptor (FcRn) binding is critical for antibody recycling (Martins et al., 2016). […] G1-AA/HeID1.3 was included as an isotype control IgG control lacking mutations in the CH3 domain.
(§6) Briefly, mAb² were individually coated on flow cell 2, 3 and 4 of Series S Sensor Chip CM5 (GE Healthcare, BR100530) to achieve a response of approximately 1000 RU. Flow cell 1 was activated/deactivated but left blank as a reference. Human FcRn (Acro Biosystems, FCM-H5286) or mouse FcRn (R&D systems, 9114-Fc) was dialysed and diluted in MHBS-EP⁺B pH 6.0 or pH 7.4 buffer (10 mM MES, FortéBio, 18-5026; 1×HBS-EP, GE Healthcare, BR100669; 0.1 mg/ml BSA, Sigma, A7906) and injected on flow cell 1, 2, 3 and 4 at 2000-3000 nM with 2-fold dilutions for 1 min at 80 μl/min and then allowed to dissociate in buffer for 3 min. […] Subtracted data (flow cell 2−flow cell 1, flow cell 3−flow cell 1, or flow cell 4−flow cell 1) was analysed using Biacore T200 Evaluation Software 2.0 to identify binding using the model steady state affinity.

[3] = molecular target: T4, mouse FcRn (R&D systems, 9114-Fc) (mouse, UniProt Q61559 22-297; P01887 21-119, limits assumed); assay: as above
T4 sequence (looked up) 1: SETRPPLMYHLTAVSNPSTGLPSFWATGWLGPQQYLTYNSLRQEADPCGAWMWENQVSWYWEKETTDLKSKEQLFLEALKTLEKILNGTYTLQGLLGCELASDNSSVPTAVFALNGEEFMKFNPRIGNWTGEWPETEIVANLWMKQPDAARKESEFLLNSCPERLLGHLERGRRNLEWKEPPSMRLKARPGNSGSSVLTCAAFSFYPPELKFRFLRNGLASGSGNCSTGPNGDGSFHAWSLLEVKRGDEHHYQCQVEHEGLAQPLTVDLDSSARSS
T4 sequence (looked up) 2: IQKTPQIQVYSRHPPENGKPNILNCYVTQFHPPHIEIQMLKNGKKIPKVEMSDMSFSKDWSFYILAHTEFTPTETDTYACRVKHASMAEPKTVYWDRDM
Excerpt: as §5, §6

hPD-L1-His-Avi = molecular target: T5, hPD-L1-His-Avi (human); assay: SPR, mAb^2 captured on immobilised human PD-L1 His, then hCD137-mFc-Avi (100 nM) in flow
T5 construct: also called human PD-L1-His Avi; Human PD-L1 His
Procedure: One flow cell was activated and deactivated without any protein immobilised for background subtraction. The antibodies, diluted to 5 μg/ml in HBS-EP buffer, were captured at a flow rate of 30 μl/min to achieve a density of about 200-300 RU. Binding of human CD137-mFc-Avi was tested at 0 and 100 nM for 5 min at 30 μl/min, followed by a dissociation step of 2.5 min. The sensor chip was regenerated after each cycle with 20 mM NaOH for 60 seconds at a flow rate of 30 μl/min.

[4] = molecular target: T6, human CD137, cell-surface (human, UniProt Q07011 24-255); assay: flow cytometry on DO11.10.hCD137
T6 construct: over-expressed on DO11.10 or HEK cells or endogenous on primary T cells, as named under assay; also called DO11.10.hCD137; HEK.FRT.luc.hCD137
Procedure: as §3, §4

T1 sequence (Q07011 24-186): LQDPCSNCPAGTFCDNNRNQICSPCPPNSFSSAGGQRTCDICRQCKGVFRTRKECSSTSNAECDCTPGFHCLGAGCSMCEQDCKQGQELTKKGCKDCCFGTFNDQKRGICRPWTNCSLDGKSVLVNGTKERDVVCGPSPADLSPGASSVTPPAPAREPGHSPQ
Sequence of Human FcRn (Acro Biosystems, FCM-H5286) (P55899 24-297 limits assumed, chain 1 of 2): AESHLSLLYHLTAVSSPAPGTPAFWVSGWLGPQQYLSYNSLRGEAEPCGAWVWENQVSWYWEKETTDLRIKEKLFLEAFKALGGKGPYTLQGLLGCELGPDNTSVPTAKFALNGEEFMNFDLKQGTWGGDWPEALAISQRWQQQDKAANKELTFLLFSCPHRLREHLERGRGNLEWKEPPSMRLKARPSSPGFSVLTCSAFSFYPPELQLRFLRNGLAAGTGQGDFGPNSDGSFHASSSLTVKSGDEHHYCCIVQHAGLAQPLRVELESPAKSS
Sequence of Human FcRn (Acro Biosystems, FCM-H5286) (P61769 21-119 limits assumed, chain 2 of 2): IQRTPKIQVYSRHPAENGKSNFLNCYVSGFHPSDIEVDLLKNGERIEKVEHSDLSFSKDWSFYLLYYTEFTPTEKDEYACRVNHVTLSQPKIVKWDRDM
T5 sequence (chain, as listed by the source limits assumed): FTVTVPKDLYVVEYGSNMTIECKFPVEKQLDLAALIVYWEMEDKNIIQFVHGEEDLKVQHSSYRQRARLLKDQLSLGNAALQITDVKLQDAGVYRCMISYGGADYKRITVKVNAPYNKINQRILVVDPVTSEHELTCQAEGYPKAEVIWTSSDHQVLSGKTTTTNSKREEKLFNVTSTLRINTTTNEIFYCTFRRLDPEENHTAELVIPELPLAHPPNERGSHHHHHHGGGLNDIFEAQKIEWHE

B1: FS22-172-003-AA/E12v2 (bispecific antibody, human IgG1, kappa, L234A L235A)
heavy: EVQLVQSGAEVKRPGASVKVSCKASGYPFTSYGISWVRQAPGQGLEWMGWISAYSGGTNYAQKLQGRVTMTTDTSTSTAYMELRSLRSDDTAVYYCARDLFPTIFGVSYYYYWGQGTLVTVSSASTKGPSVFPLAPSSKSTSGGTAALGCLVKDYFPEPVTVSWNSGALTSGVHTFPAVLQSSGLYSLSSVVTVPSSSLGTQTYICNVNHKPSNTKVDKKVEPKSCDKTHTCPPCPAPEAAGGPSVFLFPPKPKDTLMISRTPEVTCVVVDVSHEDPEVKFNWYVDGVEVHNAKTKPREEQYNSTYRVVSVLTVLHQDWLNGKEYKCKVSNKALPAPIEKTISKAKGQPREPQVYTLPPSRDELPYIIPPYNQVSLTCLVKGFYPSDIAVEWESNGQPENNYKTTPPVLDSDGSFFLYSKLTVGADRWLEGNVFSCSVMHEALHNHYTQKSLSLSPG
light: DIQMTQSPSTLSASVRDRVIITCRASQSIGNRLAWYQHKPGKAPKLLIYEASTSETGVPSRFSGSGSGTDFTLTISSLQPEDFATYYCQQSYSTPYTFGQGTKLEIKRTVAAPSVFIFPPSDEQLKSGTASVVCLLNNFYPREAKVQWKVDNALQSGNSQESVTEQDSKDSTYSLSSTLTLSKADYEKHKVYACEVTHQGLSSPVTKSFNRGEC
notes: PD-L1 site in the Fab, CD137 site in the CH3, LALA; also called anti-human CD137/PD-L1 mAb^2
Q: What does the source list for B1?
A: Kd (hCD137-mFc-Avi): 0.7 nM; Kd (cCD137-mFc-Avi): 0.8 nM; EC50 [1]: 7.39 nM; Kd [2]: 1120 nM; Kd [3]: 158 nM; binding result (hPD-L1-His-Avi): binds; EC50 [4]: 6.2 nM
